In patent publication US20090148437A1:

Columns and labels:
[1] = biological target: human TNFR1 (soluble recombinant protein) (human) (UniProt P19438); test: phage ELISA, 1 nM TNFRI coat; no trypsin; phage input 5.64E+09
[2] = biological target: human TNFR1 (soluble recombinant protein) (human) (UniProt P19438); test: phage ELISA, plate coated with 1 nM TNFRI, anti-M13-HRP; phage pre-treated 1 h RT with 100 µg/ml trypsin; phage input 4.51E+10
[3] = biological target: human TNFR1 (soluble recombinant protein) (human) (UniProt P19438); test: phage ELISA, plate coated with 1 nM TNFRI, anti-M13-HRP; phage pre-treated 1 h RT with 1 mg/ml trypsin; phage input 4.51E+10
[4] = biological target: human TNFR1 (soluble recombinant protein) (human) (UniProt P19438); test: phage ELISA, 1 nM TNFRI coat; 100 µg/ml trypsin; phage input 1.41E+09
[5] = biological target: human TNFR1 (soluble recombinant protein) (human) (UniProt P19438); test: phage ELISA, 1 nM TNFRI coat; 1 mg/ml trypsin; phage input 2.82E+09
[6] = biological target: human TNFR1 (soluble recombinant protein) (human) (UniProt P19438); test: phage ELISA, 1 nM TNFRI coat; 1 mg/ml trypsin; phage input 3.52E+08
[7] = biological target: human TNFR1 (soluble recombinant protein) (human) (UniProt P19438); test: phage ELISA, 1 nM TNFRI coat; 10 µg/ml trypsin; phage input 3.52E+08
[8] = biological target: human TNFR1 (soluble recombinant protein) (human) (UniProt P19438); test: phage ELISA, plate coated with 1 nM TNFRI, anti-M13-HRP; phage pre-treated 1 h RT with 10 µg/ml trypsin; phage input 4.51E+10
[9] = biological target: human TNFR1 (soluble recombinant protein) (human) (UniProt P19438); test: phage ELISA, 1 nM TNFRI coat; no trypsin; phage input 2.82E+09
[10] = biological target: human TNFR1 (soluble recombinant protein) (human) (UniProt P19438); test: phage ELISA, 1 nM TNFRI coat; 1 mg/ml trypsin; phage input 2.26E+10
[11] = biological target: human TNFR1 (soluble recombinant protein) (human) (UniProt P19438); test: phage ELISA, 1 nM TNFRI coat; 1 mg/ml trypsin; phage input 1.13E+10
[12] = biological target: human TNFR1 (soluble recombinant protein) (human) (UniProt P19438); test: phage ELISA, 1 nM TNFRI coat; 100 µg/ml trypsin; phage input 3.52E+08
[13] = biological target: human TNFR1 (soluble recombinant protein) (human) (UniProt P19438); test: phage ELISA, 1 nM TNFRI coat; 100 µg/ml trypsin; phage input 2.82E+09
[14] = biological target: human TNFR1 (soluble recombinant protein) (human) (UniProt P19438); test: phage ELISA, 1 nM TNFRI coat; 100 µg/ml trypsin; phage input 1.13E+10
[15] = biological target: human TNFR1 (soluble recombinant protein) (human) (UniProt P19438); test: phage ELISA, 1 nM TNFRI coat; 100 µg/ml trypsin; phage input 2.26E+10
[16] = biological target: human TNFR1 (soluble recombinant protein) (human) (UniProt P19438); test: phage ELISA, 1 nM TNFRI coat; 100 µg/ml trypsin; phage input 7.05E+08
[17] = biological target: human TNFR1 (soluble recombinant protein) (human) (UniProt P19438); test: phage ELISA, plate coated with 1 nM TNFRI, anti-M13-HRP; no trypsin (0 µg/ml); phage input 4.51E+10
[18] = biological target: human TNFR1 (soluble recombinant protein) (human) (UniProt P19438); test: phage ELISA, 1 nM TNFRI coat; no trypsin; phage input 7.05E+08
[19] = biological target: human TNFR1 (soluble recombinant protein) (human) (UniProt P19438); test: phage ELISA, 1 nM TNFRI coat; no trypsin; phage input 1.13E+10
[20] = biological target: human TNFR1 (soluble recombinant protein) (human) (UniProt P19438); test: phage ELISA, 1 nM TNFRI coat; 10 µg/ml trypsin; phage input 7.05E+08
[21] = biological target: human TNFR1 (soluble recombinant protein) (human) (UniProt P19438); test: phage ELISA, 1 nM TNFRI coat; 10 µg/ml trypsin; phage input 1.41E+09
[22] = biological target: human TNFR1 (soluble recombinant protein) (human) (UniProt P19438); test: phage ELISA, 1 nM TNFRI coat; 10 µg/ml trypsin; phage input 2.82E+09
[23] = biological target: human TNFR1 (soluble recombinant protein) (human) (UniProt P19438); test: phage ELISA, 1 nM TNFRI coat; 1 mg/ml trypsin; phage input 7.05E+08
[24] = biological target: human TNFR1 (soluble recombinant protein) (human) (UniProt P19438); test: phage ELISA, 1 nM TNFRI coat; no trypsin; phage input 3.52E+08
[25] = biological target: human TNFR1 (soluble recombinant protein) (human) (UniProt P19438); test: phage ELISA, 1 nM TNFRI coat; no trypsin; phage input 2.26E+10
[26] = biological target: human TNFR1 (soluble recombinant protein) (human) (UniProt P19438); test: phage ELISA, 1 nM TNFRI coat; 100 µg/ml trypsin; phage input 5.64E+09
[27] = biological target: human TNFR1 (soluble recombinant protein) (human) (UniProt P19438); test: phage ELISA, 1 nM TNFRI coat; 10 µg/ml trypsin; phage input 1.13E+10
[28] = biological target: human TNFR1 (soluble recombinant protein) (human) (UniProt P19438); test: phage ELISA, 1 nM TNFRI coat; 1 mg/ml trypsin; phage input 1.41E+09
[29] = biological target: human TNFR1 (soluble recombinant protein) (human) (UniProt P19438); test: phage ELISA, 1 nM TNFRI coat; no trypsin; phage input 1.41E+09
[30] = biological target: human TNFR1 (soluble recombinant protein) (human) (UniProt P19438); test: phage ELISA, 1 nM TNFRI coat; 10 µg/ml trypsin; phage input 5.64E+09
[31] = biological target: human TNFR1 (soluble recombinant protein) (human) (UniProt P19438); test: phage ELISA, 1 nM TNFRI coat; 10 µg/ml trypsin; phage input 2.26E+10

Chain of human TNFR1 (soluble recombinant protein) (human) (P19438 30-211 limits assumed): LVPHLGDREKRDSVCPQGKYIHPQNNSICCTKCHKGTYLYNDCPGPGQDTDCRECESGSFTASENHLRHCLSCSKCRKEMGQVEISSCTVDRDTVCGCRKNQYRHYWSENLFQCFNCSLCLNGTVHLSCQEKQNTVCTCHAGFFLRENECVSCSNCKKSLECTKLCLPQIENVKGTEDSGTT

phage ELISA read-out [1]: 0.962
phage ELISA read-out [2]: 0.418
phage ELISA read-out [3]: 0.284
phage ELISA read-out [4]: 0.115
phage ELISA read-out [5]: 0.114
phage ELISA read-out [6]: 0.08
phage ELISA read-out [7]: 0.213
phage ELISA read-out [8]: 0.784
phage ELISA read-out [9]: 0.946
phage ELISA read-out [10]: 0.229
phage ELISA read-out [11]: 0.183
phage ELISA read-out [12]: 0.084
phage ELISA read-out [13]: 0.141
phage ELISA read-out [14]: 0.284
phage ELISA read-out [15]: 0.377
phage ELISA read-out [16]: 0.084
phage ELISA read-out [17]: 0.916
phage ELISA read-out [18]: 0.705
phage ELISA read-out [19]: 0.949
phage ELISA read-out [20]: 0.286
phage ELISA read-out [21]: 0.409
phage ELISA read-out [22]: 0.573
phage ELISA read-out [23]: 0.084
phage ELISA read-out [24]: 0.577
phage ELISA read-out [25]: 0.944
phage ELISA read-out [26]: 0.196
phage ELISA read-out [27]: 0.86
phage ELISA read-out [28]: 0.089
phage ELISA read-out [29]: 0.85
phage ELISA read-out [30]: 0.695
phage ELISA read-out [31]: 0.802
Substance: DOM1h-131
